# Measured values: the RNAGym collection of RNA variant scans (doi:10.1093/molbev/msab373)
# B1: Azoarcus group I ribozyme (parent)
# chain: GUGCCUUGCGCCGGGAAACCACGCAAGGGAUGGUGUCAAAUUCGGCGAAACCUAAGCGCCCGCCCGGGCGUAUGGCAACGCCGAGCCAAGCUUCGGCGCCUGCGCCGAUGAAGGUGUAGAGACUAGACGGCACCCACCUAAGGCAAACGCUAUGGUGAAGGCAUAGUCCAGGGAGUGGCGAAAGUCACACAAACCGG
# Variants of: B1
# Test: reverse-splicing fitness (ratio to wild type); higher = more active; in vitro selection; Mg2+ level not given
# Procedure, shortened: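 An in vitro group I ribozyme library with randomized positions was T7-transcribed and gel-purified. In triplicate, 10 pmol RNA in EPPS pH 7.5 was reacted with 50 pmoles of a 30-nt RNA substrate for 1 h at 37 °C across several added MgCl2 levels (1–48 mM), then stopped with EDTA. Products were reverse transcribed from a substrate-complementary primer, PCR-amplified and sequenced (HiSeq 4000). Fitness is a variant's read proportion after selection over that before, normalised to wild type.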
row,Variant,reverse-splicing fitness
1,C82U A120U A145U C150G U176G,0.00253
2,C82U A120U A145U C150G U176C,0.0104
3,C82U A120U A145U C150G U176A,0.00548
4,C82U A120U A145G C150U C169U U176A,0.00396
5,C82U A120U A145G C150U C169U U176C,0.00389
6,C82U A120U A145G C150U C169U U176G,0.00198
7,C82U A120U C150G,0.0156
8,C82U A120U C150U,0.0886
9,C82U A120U C150A,0.0169
10,C82U A145C C150A C169A U176C,0.00505
11,C82U A145C C150A C169A U176G,0.0047
12,C82U A145C C150A C169A U176A,0.0088
13,C82U A120U A145G C150A C169U,0.00334
14,C82U A120U A145G C150A C169G,0.00351
15,C82U A120U A145G C150A C169A,0.00483
16,C82U A120U A145G C150G U176C,0.0113
17,C82U A120U A145G C150G U176G,0.00382
18,C82U A120U A145G C150G U176A,0.00711
19,C82U A120U A145G C150G C169U,0.00613
20,C82U A120U A145G C150G C169A,0.00721
21,C82U A120U A145G C150G C169G,0.00646

row,Variant,reverse-splicing fitness
1,C82U A145C C150G U176A,0.0431
2,C82U A145C C150G U176G,0.00905
3,C82U A145C C150G U176C,0.0583
4,C82U A145G C150A C169U U176A,0.0137
5,C82U A145G C150A C169U U176G,0.00508
6,C82U A145G C150A C169U U176C,0.0152
7,C82U A120U A145G C169U,0.00624
8,C82U A120U A145G C169G,0.00532
9,C82U A120U A145G C169A,0.00259
10,C82U A120U A145U C150U C169G,0.00432
11,C82U A120U A145U C150U C169A,0.0024
12,C82U A120U A145U C150U C169U,0.00476
13,C82U A120U C169G U176C,0.00306
14,C82U A120U C169G U176A,0.00252
15,C82U A120U C169G U176G,0.0015
16,C82U A120U A145U C169G U176C,0.00267
17,C82U A120U A145U C169G U176A,0.00182
18,C82U A120U A145U C169G U176G,0.0013
19,C82U A120U A145C C150U C169A U176A,0.00242
20,C82U A120U A145C C150U C169A U176C,0.00189
21,C82U A120U A145C C150U C169A U176G,0.00165

row,Variant,reverse-splicing fitness
1,C82U A145C C150G C169U U176C,0.00785
2,C82U A145C C150G C169U U176A,0.00881
3,C82U A145C C150G C169U U176G,0.00486
4,C82U A120U C150U C169U U176A,0.00407
5,C82U A120U C150U C169U U176C,0.0038
6,C82U A120U C150U C169U U176G,0.00209
7,C82U A120U A145G U176C,0.076
8,C82U A120U A145G U176A,0.0429
9,C82U A120U A145G U176G,0.0114
10,C82U A120U A145C C150G C169A U176A,0.00201
11,C82U A120U A145C C150G C169A U176G,0.00188
12,C82U A120U A145C C150G C169A U176C,0.00196
13,C82U A120U A145G C150U U176C,0.0607
14,C82U A120U A145G C150U U176G,0.0067
15,C82U A120U A145G C150U U176A,0.0299
16,C82U A120U A145G C150A C169G U176G,0.00193
17,C82U A120U A145G C150A C169G U176A,0.00525
18,C82U A120U A145G C150A C169G U176C,0.00372
19,C82U A120U A145U C150U C169G U176C,0.00299
20,C82U A120U A145U C150U C169G U176G,0.00157
21,C82U A120U A145U C150U C169G U176A,0.00254

row,Variant,reverse-splicing fitness
1,C82U A120U C169A,0.00227
2,C82U A120U C169U,0.00737
3,C82U A120U C169G,0.00592
4,C82U A145G C150A C169A U176C,0.0216
5,C82U A145G C150A C169A U176A,0.0196
6,C82U A145G C150A C169A U176G,0.00596
7,C82U A120U A145U C169U U176C,0.00358
8,C82U A120U A145U C169U U176A,0.00227
9,C82U A120U A145U C169U U176G,0.00161
10,C82U A120U A145G C150U C169A U176A,0.00476
11,C82U A120U A145G C150U C169A U176G,0.0022
12,C82U A120U A145G C150U C169A U176C,0.00278
13,C82U A120U C150G C169A U176A,0.00476
14,C82U A120U C150G C169A U176C,0.003
15,C82U A120U C150G C169A U176G,0.00234
16,C82U A120U A145U C150A C169U U176A,0.0025
17,C82U A120U A145U C150A C169U U176C,0.002
18,C82U A120U A145U C150A C169U U176G,0.00172
19,C82U A120U A145U C150A C169G U176C,0.00274
20,C82U A120U A145U C150A C169G U176A,0.00218
21,C82U A120U A145U C150A C169G U176G,0.00147
